B1: R. etli L-asparaginase (Rhizobium etli CFN 42) (protein)
chain: MTPSEDFVVTDRGGIVENSHRVHAAVVDAKGRLLYALGNPTRMTLARSAAKPAQALAILETEGVAGYGFDDADIALMCASHSSEDRHIARTRAMLSKIKAEEADLRCGGHPSLSEMVNRSWIKQDFIPTAVCSNCSGKHVGMLAGARAIGAGTDGYHLPDHPMQGRVKRTVAELCDLDAGDVEWGTDGCNLPTPAFPLDRLGRIYAKLASAADGSDAGEGQSTRCAALAHIFRAMARHPEMVAGEGRYCTMLMRAFDGALVGKLGADASYAIGVRASDATRQLGTDGALGISVKIEDGNLEMLYAVVTELLERLGIGSPDVRSQLASFHHPQRVNTMGVTTGGVSFPFKLRGSKSNVDDPRLAAVAR
notes: pET28a (NcoI/EcoRI; pET28a-AnsRe), E. coli BL21(DE3), HisTrap purified, 38 kDa
B2: S. scabrisporus L-asparaginase (Embleya scabrispora) (protein)
chain: MRPEDTVPHESTTRYAELAEVVRSGFVESRHFGSLVALAPDGRPALELGVPNEPVVPRSSAKPFQALACLRAGAPLSGAHVAIAAGSHTGQDFHVDAVEDILTRSGLTFDALGCPPSRPEDEDTYQEMIARGEENTRERMNCSGKHAAMLAACVASGWPTEGYLDPGHPLQVLVREGIEELAGESVAHTAVDGCGAPVFAMTLTGLARGVRALATATTGPERVVAKAMREHPAYVGGDGQANTEVMRLLPGVLVKGGAEGVFVAATTAGHAVAVKVIDGSPRATTALALAALHRLGVDVSAASEWTTVPVLGGGLPVGEVRVTSHLG
notes: codon-optimised gene in pET28a(+) (NdeI/EcoRI; pET28a-AnsSs), E. coli BL21(DE3), HisTrap purified, 34 kDa

Tests used:
[1] = substrate: NC(=O)C[C@H](N)C(=O)O; test: Nessler ammonium assay, Michaelis-Menten fit; type: biochemical, Rhizobium etli; conditions: physiological pH (printed as pH 7 and as phosphate pH 7.4), 37 °C
[2] = substrate: NC(=O)C[C@H](N)C(=O)O; test: Nessler ammonium assay, Michaelis-Menten fit; type: biochemical, Embleya scabrispora; conditions: pH 10 (optimum), 37 °C, 0.5-20 mM asparagine
Source text: Nessler ammonium assay, Michaelis-Menten fit on S. scabrisporus L-asparaginase

Protein | Km [1] [mM] | kcat [1] [s⁻¹] | Km [2] [mM] | kcat [2] [s⁻¹]
B1 | 15.9 ± 4.7 | 140.3 ± 7 | – | –
B2 | – | – | 7.361 ± 1.78 | 40.8 ± 2

Source: PMC12594388, “Enzymatic properties of a L-asparaginase without secondary glutaminase activity from Streptomyces scabrisporus” (PLOS One, 2025)
